Data reported in the RNAGym collection of RNA variant scans (doi:10.7554/elife.80360).

B1: CPEB3 Ribozyme (parent)
chain: GGGGGCCACAGCAGAAGCGUUCACGUCGCGGCCCCUGUCAGAUUCUGGUGAAUCUGCGAAUUCUGCUGU

Variants of: B1
Assay: self-cleavage, relative activity (ratio to wild type); higher = more cleavage; co-transcriptional

Row | Variant | self-cleavage
1 | A8G U43C | 0.758
2 | A8U G48U | 1.03
3 | A8C A59C | 0.725
4 | A8U G28A | 0.141
5 | A8U G28U | 0.0893
6 | A8U G56C | 0.761
7 | A8U C57A | 0.299
8 | A8U C57U | 0.361
9 | A8C G37C | 0.239
10 | A8U A23C | 0.944
11 | A8G U62G | 0.367
12 | A8G A16G | 0.458
13 | A8G A16C | 0.0896
14 | A8U U44A | 0.97
15 | A8U C33U | 0.996
16 | A8U C33A | 0.935
17 | A8G A60C | 0.143
18 | A8U G17A | 0.388
19 | A8U U49C | 1.02
20 | A8U U49A | 0.98
21 | A8G G65C | 0.424
22 | A8G G65U | 0.223
23 | A8U A15C | 0.812
24 | A8U A51C | 0.974

Row | Variant | self-cleavage
25 | A8C G47U | 1.04
26 | A8C G47C | 1.03
27 | A8U C9A | 1.03
28 | A8C U21G | 0.501
29 | A8C U21A | 0.972
30 | A8C U64A | 0.947
31 | A8C A51C | 0.981
32 | A8C A51G | 0.962
33 | A8C G41C | 0.757
34 | A8U C29A | 0.269
35 | A8U U36G | 0.163
36 | A8C U67G | 0.975
37 | A8C U67C | 1
38 | A8G U69A | 0.928
39 | A8G U69C | 1.05
40 | A8C A42C | 0.992
41 | A8G U38A | 0.662
42 | A8G U38G | 0.0785
43 | A8U U43G | 0.913
44 | A8C U26C | 0.992
45 | A8C U26A | 0.82
46 | A8C U26G | 0.835
47 | A8G G50U | 0.877
48 | A8G G50A | 0.868

Row | Variant | self-cleavage
49 | A8C U43G | 0.938
50 | A8C U43A | 0.971
51 | A8C U43C | 0.95
52 | A8G U20A | 0.0589
53 | A8U U21A | 0.994
54 | A8G C35U | 0.808
55 | A8U G19U | 0.483
56 | A8U G19C | 0.146
57 | A8U U61C | 0.808
58 | A8U C22A | 0.154
59 | A8U C63G | 0.782
60 | A8U C63U | 1.03
61 | A8G U53A | 0.591
62 | A8G U53C | 0.31
63 | A8G A15G | 0.777
64 | A8U G50U | 1.01
65 | A8U G25U | 0.0965
66 | A8U C45G | 0.958
67 | A8U C45A | 1.01
68 | A8G G48C | 0.954
69 | A8C C29G | 0.0981
70 | A8C C29U | 0.81
71 | A8C G14U | 0.723
72 | A8C G25U | 0.177

Row | Variant | self-cleavage
73 | A8C U20G | 0.141
74 | A8C G28A | 0.215
75 | A8C U61A | 0.913
76 | A8C A15G | 0.995
77 | A8C G56U | 0.908
78 | A8U U62A | 0.97
79 | A8U U62G | 0.945
80 | A8G C33G | 0.488
81 | A8G C27G | 0.0649
82 | A8C U38A | 0.897
83 | A8C U38G | 0.245
84 | A8U A42G | 0.943
85 | A8C G58C | 0.963
86 | A8C G58U | 1.03
87 | A8C G65C | 0.635
88 | A8C C27U | 0.342
89 | A8U A40G | 0.97
90 | A8G G47A | 1
91 | A8C G68A | 1.02
92 | A8G U21G | 0.199
93 | A8G U21A | 0.833
94 | A8G C39U | 0.448
95 | A8C C54A | 0.915
96 | A8C G19U | 0.462

Row | Variant | self-cleavage
97 | A8C G19C | 0.107
98 | A8C C12A | 0.637
99 | A8G G37A | 0.128
100 | A8G G37U | 0.134
101 | A8U A10G | 0.937
102 | A8U A10C | 1.03
103 | A8G C34U | 0.952
104 | A8G C34A | 0.734
105 | A8U G14C | 0.593
106 | A8C U69C | 1.07
107 | A8U A59G | 1
108 | A8C C32A | 0.784
109 | A8U C18U | 0.928
110 | A8U C12U | 1.05
111 | A8G U55A | 0.269
112 | A8G G19A | 0.0612
113 | A8C U46G | 0.982
114 | A8U U55A | 0.967
115 | A8C G50A | 1.02
116 | A8C G50C | 0.98
117 | A8C G50U | 1.03
118 | A8G U64G | 0.304
119 | A8U C35G | 0.435
120 | A8U U64C | 0.953

Row | Variant | self-cleavage
121 | A8G U44A | 0.607
122 | A8G U44G | 0.651
123 | A8C U44G | 0.927
124 | A8C C66A | 0.818
125 | A8C C33U | 1
126 | A8U G65A | 0.901
127 | A8U G37C | 0.169
128 | A8C U55C | 0.891
129 | A8G A23C | 0.751
130 | A8G U61A | 0.379
131 | A8U G41A | 0.789
132 | A8G C45G | 0.801
133 | A8U C39U | 0.986
134 | A8G C9A | 0.994
135 | A8G A51G | 0.901
136 | A8G A51U | 0.772
137 | A8U G11C | 0.873
138 | A8C C45G | 0.984
139 | A8U U53A | 0.913
140 | A8U U53G | 0.891
141 | A8U A13U | 0.805
142 | A8U A52C | 0.975
143 | A8C C18A | 0.152
144 | A8C G31A | 0.888

Row | Variant | self-cleavage
145 | A8G G31C | 0.0995
146 | A8G A13G | 0.192
147 | A8G A13C | 0.126
148 | A8G U67A | 0.59
149 | A8C A52U | 0.962
150 | A8G C32G | 0.517
151 | A8G C32U | 0.877
152 | A8G U36G | 0.135
153 | A8G U36C | 0.593
154 | A8G G58U | 0.92
155 | A8G G58A | 0.867
156 | A8C A40C | 0.639
157 | A8C C63G | 0.734
158 | A8G C57U | 0.303
159 | A8C C35A | 0.374
160 | A8U G58A | 0.995
161 | A8U C66A | 0.857
162 | A8U C66U | 0.993
163 | A8U G30U | 0.519
164 | A8C G48A | 1
165 | A8C C24A | 0.707
166 | A8G A10C | 0.666
167 | A8G A10G | 0.122
